The numbers were not newly measured in publication PMC7417478, which cites them from elsewhere.

As usually defined, the Kd is the constant that tells how readily two partners part at equilibrium.

In one series the target is FGFR2 (Homo sapiens) (UniProt P21802).
For another series, the target named is FGFR1 (Homo sapiens) (UniProt P11362).
UniProt P11362, sequence (P11362 22-376): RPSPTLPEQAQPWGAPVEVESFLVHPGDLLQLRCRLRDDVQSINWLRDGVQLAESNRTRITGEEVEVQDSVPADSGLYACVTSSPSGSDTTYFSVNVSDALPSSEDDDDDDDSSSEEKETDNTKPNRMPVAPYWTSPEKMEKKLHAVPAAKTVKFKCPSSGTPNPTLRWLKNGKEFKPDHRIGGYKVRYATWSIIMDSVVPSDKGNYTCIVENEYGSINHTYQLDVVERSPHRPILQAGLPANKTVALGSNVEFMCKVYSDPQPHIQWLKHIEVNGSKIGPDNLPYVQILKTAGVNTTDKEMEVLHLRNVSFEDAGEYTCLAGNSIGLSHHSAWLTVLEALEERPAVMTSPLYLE

UniProt P21802, sequence (P21802 22-377): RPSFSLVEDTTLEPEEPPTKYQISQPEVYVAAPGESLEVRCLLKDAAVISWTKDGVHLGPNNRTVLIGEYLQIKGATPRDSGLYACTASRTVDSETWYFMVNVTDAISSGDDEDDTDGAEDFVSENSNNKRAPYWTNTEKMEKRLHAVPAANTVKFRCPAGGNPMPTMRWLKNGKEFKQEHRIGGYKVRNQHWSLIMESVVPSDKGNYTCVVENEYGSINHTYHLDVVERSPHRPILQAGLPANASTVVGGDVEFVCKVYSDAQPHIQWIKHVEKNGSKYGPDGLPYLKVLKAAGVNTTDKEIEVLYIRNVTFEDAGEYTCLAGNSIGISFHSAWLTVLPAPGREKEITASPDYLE

Turning to FGF5 (from UniProt P12034), the Kd with FGFR2 (Homo sapiens) and with FGFR1 (Homo sapiens) was 1 nM in each case.
